Measured values taken from publication PMC9482650, “Quantitative fragmentomics allow affinity mapping of interactomes” (Nature Communications, 2022).

Tests used:
Assay in all cases: holdup assay
Set-up in all cases: key: below the threshold = too weak to quantify, mostly under pKd 3.1 to 4
GORASP2, Q9H8Y8 = biological target: GORASP2, Q9H8Y8
SNX27, Q96L92 = biological target: SNX27, Q96L92
SNTA1, Q13424 = biological target: T1, SNTA1, Q13424
T1 sequence (Q13424 82-180, limits assumed, looked up): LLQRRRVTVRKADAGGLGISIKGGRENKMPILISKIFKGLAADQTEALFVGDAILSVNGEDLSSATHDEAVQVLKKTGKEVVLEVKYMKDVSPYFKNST

DFNB31_2, Q9P202 = biological target: T2, DFNB31_2, Q9P202
T2 sequence (Q9P202 274-371, limits assumed, looked up): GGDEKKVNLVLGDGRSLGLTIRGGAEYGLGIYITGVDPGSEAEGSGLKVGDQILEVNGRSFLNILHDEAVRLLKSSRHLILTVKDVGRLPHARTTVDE

NHERF4_1, Q86UT5-2 = biological target: NHERF4_1, Q86UT5-2
Chain of NHERF4_1, Q86UT5-2 (Q86UT5 other isoform, or with tags, fused parts or gaps): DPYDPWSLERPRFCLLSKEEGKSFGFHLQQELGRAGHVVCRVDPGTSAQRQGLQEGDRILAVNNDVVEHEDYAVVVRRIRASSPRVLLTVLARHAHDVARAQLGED

AHNAK1, Q09666 = biological target: AHNAK1, Q09666
Chain of AHNAK1, Q09666 (Q09666 4-100): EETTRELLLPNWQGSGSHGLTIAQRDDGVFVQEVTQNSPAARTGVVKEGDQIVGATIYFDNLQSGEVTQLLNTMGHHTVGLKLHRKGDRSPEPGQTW

DLG4_3, P78352 = biological target: DLG4_3, P78352
Chain of DLG4_3, P78352 (P78352 306-403): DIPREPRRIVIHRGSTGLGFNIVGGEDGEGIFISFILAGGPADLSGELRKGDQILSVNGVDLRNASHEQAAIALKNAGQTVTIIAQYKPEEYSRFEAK

GOPC, Q9HD26 = biological target: GOPC, Q9HD26
DLG5_1, Q8TDM6 = biological target: DLG5_1, Q8TDM6
Chain of DLG5_1, Q8TDM6 (Q8TDM6 617-713): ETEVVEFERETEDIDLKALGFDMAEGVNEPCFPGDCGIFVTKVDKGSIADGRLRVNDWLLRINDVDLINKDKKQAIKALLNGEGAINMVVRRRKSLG

PARD3B_1, Q8TEW8 = biological target: T3, PARD3B_1, Q8TEW8
T3 sequence (Q8TEW8 196-299, limits assumed, looked up): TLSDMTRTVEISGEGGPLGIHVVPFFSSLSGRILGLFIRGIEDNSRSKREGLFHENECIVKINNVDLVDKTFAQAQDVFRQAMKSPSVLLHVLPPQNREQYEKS

SCRIB_2, Q14160 = biological target: SCRIB_2, Q14160
Chain of SCRIB_2, Q14160 (Q14160 857-960): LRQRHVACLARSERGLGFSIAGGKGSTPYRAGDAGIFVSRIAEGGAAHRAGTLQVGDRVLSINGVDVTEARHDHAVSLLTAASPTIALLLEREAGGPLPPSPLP

MPDZ_5, O75970 = biological target: T4, MPDZ_5, O75970
T4 sequence (O75970 695-796, limits assumed, looked up): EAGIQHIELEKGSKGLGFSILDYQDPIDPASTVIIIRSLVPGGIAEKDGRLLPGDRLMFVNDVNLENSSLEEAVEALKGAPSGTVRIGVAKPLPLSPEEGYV

DLG1_2, Q12959 = biological target: DLG1_2, Q12959
Chain of DLG1_2, Q12959 (Q12959 314-412): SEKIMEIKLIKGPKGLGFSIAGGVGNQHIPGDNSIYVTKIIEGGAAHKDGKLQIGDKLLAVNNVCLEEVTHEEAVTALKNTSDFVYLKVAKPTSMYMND

DLG2_3, Q15700 = biological target: DLG2_3, Q15700
Inadl_3, Q8NI35 = biological target: Inadl_3, Q8NI35
Chain of Inadl_3, Q8NI35 (Q8NI35 359-469): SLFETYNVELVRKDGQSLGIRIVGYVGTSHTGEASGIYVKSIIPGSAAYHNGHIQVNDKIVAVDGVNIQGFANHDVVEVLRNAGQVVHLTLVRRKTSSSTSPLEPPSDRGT

GRID2IP_2, A4D2P6 = biological target: GRID2IP_2, A4D2P6
Chain of GRID2IP_2, A4D2P6 (A4D2P6 272-370): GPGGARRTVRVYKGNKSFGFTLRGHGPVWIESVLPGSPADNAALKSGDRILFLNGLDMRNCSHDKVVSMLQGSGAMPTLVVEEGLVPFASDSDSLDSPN

PICK1, Q9NRD5 = biological target: PICK1, Q9NRD5
Chain of PICK1, Q9NRD5 (Q9NRD5 17-115): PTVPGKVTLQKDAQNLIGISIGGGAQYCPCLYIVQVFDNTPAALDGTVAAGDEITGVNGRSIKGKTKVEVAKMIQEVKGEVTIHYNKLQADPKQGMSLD

SNTG2, Q9NY99 = biological target: T5, SNTG2, Q9NY99
T5 sequence (Q9NY99 68-166, limits assumed, looked up): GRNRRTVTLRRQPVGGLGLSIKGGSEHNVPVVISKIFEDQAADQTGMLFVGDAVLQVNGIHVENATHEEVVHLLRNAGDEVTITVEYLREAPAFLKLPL

ARHGEF12, Q9NZN5-2 = biological target: ARHGEF12, Q9NZN5-2
Chain of ARHGEF12, Q9NZN5-2 (Q9NZN5 other isoform, or with tags, fused parts or gaps): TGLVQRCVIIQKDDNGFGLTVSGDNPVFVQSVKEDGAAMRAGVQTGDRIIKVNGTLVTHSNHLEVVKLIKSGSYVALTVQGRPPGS

GRIP2_5, Q9C0E4 = biological target: GRIP2_5, Q9C0E4
Chain of GRIP2_5, Q9C0E4 (Q9C0E4 544-642): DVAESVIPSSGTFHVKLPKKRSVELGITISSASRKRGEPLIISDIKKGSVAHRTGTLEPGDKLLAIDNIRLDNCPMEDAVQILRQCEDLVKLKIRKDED

NHERF3_1, Q5T2W1 = biological target: T6, NHERF3_1, Q5T2W1
T6 sequence (Q5T2W1 4-100, limits assumed, looked up): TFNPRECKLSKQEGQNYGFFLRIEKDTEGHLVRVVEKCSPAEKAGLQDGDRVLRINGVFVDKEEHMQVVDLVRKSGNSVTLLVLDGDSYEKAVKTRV

SHANK1, Q9Y566 = biological target: T7, SHANK1, Q9Y566
T7 sequence (Q9Y566 658-767, limits assumed, looked up): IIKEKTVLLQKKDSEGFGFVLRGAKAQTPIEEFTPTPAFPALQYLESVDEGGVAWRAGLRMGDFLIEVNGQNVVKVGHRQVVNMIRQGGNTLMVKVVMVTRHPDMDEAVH

Inadl_2, Q8NI35 = biological target: Inadl_2, Q8NI35
Chain of Inadl_2, Q8NI35 (Q8NI35 238-335): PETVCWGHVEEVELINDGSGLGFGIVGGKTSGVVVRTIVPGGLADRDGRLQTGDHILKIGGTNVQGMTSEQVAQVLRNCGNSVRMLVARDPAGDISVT

GRIP2_3, Q9C0E4 = biological target: GRIP2_3, Q9C0E4
Chain of GRIP2_3, Q9C0E4 (Q9C0E4 238-339): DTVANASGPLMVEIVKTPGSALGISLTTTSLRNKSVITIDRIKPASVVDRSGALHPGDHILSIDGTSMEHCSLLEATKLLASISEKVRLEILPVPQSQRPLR

APBA1_1, Q02410 = biological target: T8, APBA1_1, Q02410
T8 sequence (Q02410 651-752, limits assumed, looked up): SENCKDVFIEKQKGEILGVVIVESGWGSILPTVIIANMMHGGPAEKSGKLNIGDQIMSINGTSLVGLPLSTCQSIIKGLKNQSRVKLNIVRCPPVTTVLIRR

TIAM2, Q8IVF5 = biological target: T9, TIAM2, Q8IVF5
T9 sequence (Q8IVF5 885-986, limits assumed, looked up): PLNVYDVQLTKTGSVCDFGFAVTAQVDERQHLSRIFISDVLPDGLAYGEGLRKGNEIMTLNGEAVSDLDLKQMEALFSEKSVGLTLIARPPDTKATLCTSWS

DLG4_2, P78352 = biological target: DLG4_2, P78352
Chain of DLG4_2, P78352 (P78352 155-259): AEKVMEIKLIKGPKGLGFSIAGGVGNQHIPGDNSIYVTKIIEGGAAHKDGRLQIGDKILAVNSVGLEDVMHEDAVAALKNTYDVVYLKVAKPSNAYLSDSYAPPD

TJP1_3, Q07157 = biological target: TJP1_3, Q07157
Chain of TJP1_3, Q07157 (Q07157 416-512): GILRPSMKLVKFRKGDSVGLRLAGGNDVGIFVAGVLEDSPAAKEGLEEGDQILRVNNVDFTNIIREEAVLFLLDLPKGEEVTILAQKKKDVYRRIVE

IL16_3, Q14005 = biological target: IL16_3, Q14005
Chain of IL16_3, Q14005 (Q14005 1107-1207): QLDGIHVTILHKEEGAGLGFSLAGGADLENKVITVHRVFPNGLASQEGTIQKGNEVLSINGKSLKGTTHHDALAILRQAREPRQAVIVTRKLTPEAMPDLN

[1] = plain residues with an end cap or a label only (N-terminal biotin on a linker: ttds)
[2] = plain residues with an end cap or a label only (N-terminal biotin on a linker: ado-ado)

Binder: GARVSKETPL [MAPK12, P53778]
- pKd (GORASP2, Q9H8Y8; [1]): below the threshold
- pKd (SNX27, Q96L92; [1]): 5
- pKd (SNTA1, Q13424; [1]): 4.49
- pKd (DFNB31_2, Q9P202; [1]): below the threshold
- pKd (NHERF4_1, Q86UT5-2; [1]): 3.85
- pKd (AHNAK1, Q09666; [1]): below the threshold
- pKd (DLG4_3, P78352; [1]): 4.03
- pKd (GOPC, Q9HD26; [1]): below the threshold
- pKd (DLG5_1, Q8TDM6; [1]): below the threshold
- pKd (PARD3B_1, Q8TEW8; [1]): below the threshold
- pKd (SCRIB_2, Q14160; [1]): 3.65
- pKd (MPDZ_5, O75970; [1]): below the threshold
- pKd (DLG1_2, Q12959; [1]): 4.71
- pKd (DLG2_3, Q15700; [1]): 4.21
- pKd (Inadl_3, Q8NI35; [1]): below the threshold
- pKd (GRID2IP_2, A4D2P6; [1]): 3.53
- pKd (PICK1, Q9NRD5; [1]): below the threshold
- pKd (SNTG2, Q9NY99; [1]): 4.18
- pKd (ARHGEF12, Q9NZN5-2; [1]): 4.34
- pKd (GRIP2_5, Q9C0E4; [1]): below the threshold
- pKd (NHERF3_1, Q5T2W1; [1]): 5.56
- pKd (SHANK1, Q9Y566; [1]): 3.56
- pKd (Inadl_2, Q8NI35; [1]): below the threshold
- pKd (GRIP2_3, Q9C0E4; [1]): below the threshold
- pKd (APBA1_1, Q02410; [1]): below the threshold
- pKd (TIAM2, Q8IVF5; [1]): below the threshold
- pKd (DLG4_2, P78352; [1]): 4.45
- pKd (TJP1_3, Q07157; [1]): below the threshold
- pKd (IL16_3, Q14005; [1]): below the threshold

Binder: IGHEDLETAV [DGKI, O75912]
- pKd (GORASP2, Q9H8Y8; [2]): below the threshold
- pKd (SNX27, Q96L92; [2]): 5.73
- pKd (SNTA1, Q13424; [2]): 5.18
- pKd (DFNB31_2, Q9P202; [2]): below the threshold
- pKd (NHERF4_1, Q86UT5-2; [2]): below the threshold
- pKd (AHNAK1, Q09666; [2]): below the threshold
- pKd (DLG4_3, P78352; [2]): below the threshold
- pKd (GOPC, Q9HD26; [2]): 3.58
- pKd (DLG5_1, Q8TDM6; [2]): below the threshold
- pKd (PARD3B_1, Q8TEW8; [2]): below the threshold
- pKd (SCRIB_2, Q14160; [2]): 4.83
- pKd (MPDZ_5, O75970; [2]): below the threshold
- pKd (DLG1_2, Q12959; [2]): 5.11
- pKd (DLG2_3, Q15700; [2]): 3.96
- pKd (Inadl_3, Q8NI35; [2]): 3.53
- pKd (GRID2IP_2, A4D2P6; [2]): 3.79
- pKd (PICK1, Q9NRD5; [2]): below the threshold
- pKd (SNTG2, Q9NY99; [2]): 4.8
- pKd (ARHGEF12, Q9NZN5-2; [2]): 3.49
- pKd (GRIP2_5, Q9C0E4; [2]): below the threshold
- pKd (NHERF3_1, Q5T2W1; [2]): 4.75
- pKd (SHANK1, Q9Y566; [2]): 4.41
- pKd (Inadl_2, Q8NI35; [2]): below the threshold
- pKd (GRIP2_3, Q9C0E4; [2]): below the threshold
- pKd (APBA1_1, Q02410; [2]): below the threshold
- pKd (TIAM2, Q8IVF5; [2]): below the threshold
- pKd (DLG4_2, P78352; [2]): 4.97
- pKd (TJP1_3, Q07157; [2]): below the threshold
- pKd (IL16_3, Q14005; [2]): below the threshold

Binder: KQVVPFSSSV [GDA, Q9Y2T3]
- pKd (GORASP2, Q9H8Y8; [1]): below the threshold
- pKd (SNX27, Q96L92; [1]): 3.53
- pKd (SNTA1, Q13424; [1]): below the threshold
- pKd (DFNB31_2, Q9P202; [1]): below the threshold
- pKd (NHERF4_1, Q86UT5-2; [1]): below the threshold
- pKd (AHNAK1, Q09666; [1]): below the threshold
- pKd (DLG4_3, P78352; [1]): below the threshold
- pKd (GOPC, Q9HD26; [1]): 3.65
- pKd (DLG5_1, Q8TDM6; [1]): below the threshold
- pKd (PARD3B_1, Q8TEW8; [1]): below the threshold
- pKd (SCRIB_2, Q14160; [1]): below the threshold
- pKd (MPDZ_5, O75970; [1]): 3.52
- pKd (DLG1_2, Q12959; [1]): 4.38
- pKd (DLG2_3, Q15700; [1]): 3.63
- pKd (Inadl_3, Q8NI35; [1]): below the threshold
- pKd (GRID2IP_2, A4D2P6; [1]): 3.6
- pKd (PICK1, Q9NRD5; [1]): below the threshold
- pKd (SNTG2, Q9NY99; [1]): below the threshold
- pKd (ARHGEF12, Q9NZN5-2; [1]): 3.98
- pKd (GRIP2_5, Q9C0E4; [1]): below the threshold
- pKd (NHERF3_1, Q5T2W1; [1]): 4.31
- pKd (SHANK1, Q9Y566; [1]): 3.49
- pKd (Inadl_2, Q8NI35; [1]): below the threshold
- pKd (GRIP2_3, Q9C0E4; [1]): below the threshold
- pKd (APBA1_1, Q02410; [1]): below the threshold
- pKd (TIAM2, Q8IVF5; [1]): below the threshold
- pKd (DLG4_2, P78352; [1]): 4.42
- pKd (TJP1_3, Q07157; [1]): below the threshold
- pKd (IL16_3, Q14005; [1]): below the threshold

Binder: DLDEEEDTHL [PODXL, O00592]
- pKd (GORASP2, Q9H8Y8; [1]): 3.48
- pKd (SNX27, Q96L92; [1]): 5.15
- pKd (SNTA1, Q13424; [1]): 3.63
- pKd (DFNB31_2, Q9P202; [1]): below the threshold
- pKd (NHERF4_1, Q86UT5-2; [1]): below the threshold
- pKd (AHNAK1, Q09666; [1]): below the threshold
- pKd (DLG4_3, P78352; [1]): below the threshold
- pKd (GOPC, Q9HD26; [1]): below the threshold
- pKd (DLG5_1, Q8TDM6; [1]): below the threshold
- pKd (PARD3B_1, Q8TEW8; [1]): below the threshold
- pKd (SCRIB_2, Q14160; [1]): below the threshold
- pKd (MPDZ_5, O75970; [1]): below the threshold
- pKd (DLG1_2, Q12959; [1]): below the threshold
- pKd (DLG2_3, Q15700; [1]): below the threshold
- pKd (Inadl_3, Q8NI35; [1]): below the threshold
- pKd (GRID2IP_2, A4D2P6; [1]): below the threshold
- pKd (PICK1, Q9NRD5; [1]): below the threshold
- pKd (SNTG2, Q9NY99; [1]): below the threshold
- pKd (ARHGEF12, Q9NZN5-2; [1]): below the threshold
- pKd (GRIP2_5, Q9C0E4; [1]): below the threshold
- pKd (NHERF3_1, Q5T2W1; [1]): 4.5
- pKd (SHANK1, Q9Y566; [1]): 4.95
- pKd (Inadl_2, Q8NI35; [1]): below the threshold
- pKd (GRIP2_3, Q9C0E4; [1]): below the threshold
- pKd (APBA1_1, Q02410; [1]): below the threshold
- pKd (TIAM2, Q8IVF5; [1]): below the threshold
- pKd (DLG4_2, P78352; [1]): below the threshold
- pKd (TJP1_3, Q07157; [1]): below the threshold
- pKd (IL16_3, Q14005; [1]): below the threshold
